Experimental data taken from the Human Domainome abundance scans (Beltran et al. 2025).

B1: RAS guanyl-releasing protein 1, residues 539 to 593; numbered along this chain, O95267 (parent)
chain: GFPHNFQETTYLKPTFCDNCAGFLWGVIKQGYRCKDCGMNCHKQCKDLVVFECKK
B2: Zinc finger homeobox protein 4, residues 2562 to 2617; numbered along this chain, Q86UP3 (parent)
chain: RLRTTITPEQLEILYEKYLLDSNPTRKMLDHIAREVGLKKRVVQVWFQNTRARERK

Variants of: B1
Test: abundance fitness (aPCA) (normalised: wild type 0, dead -1); higher = more abundant; growth selection in yeast, the domain comes from the species named
Settings: Homo sapiens

Abundance fitness of substitutions, site by site:
T10: V -0.95, F -0.045, R -0.494, K -0.456, I -0.576, W -0.073, Q -0.357, L -0.426, A -0.408, G -0.208, N -0.311, P -0.605, S -0.092, H -0.364, E -0.925, M -0.682, Y -0.291
F2: G -0.335, V -0.282, T -0.15, R -0.118, E -0.343, M -0.051, N 0.214, C -0.214, D -0.086, K -0.108, Q -0.282, W -0.523, I 0.097, A -0.261, H -0.048, Y -0.019
E8: F -0.096, T -0.274, I -0.063, M 0.197, H -0.765, N -0.152, V 0.039, R -0.068, S -0.191, P -0.303, A 0.039, W -0.174, C -0.107, D -0.452, Y -0.105, G 0.007, Q 0.086
Q7: A -0.027, M 0.028, H -0.096, G -0.116, D -0.204, C -0.366, P -0.961, S -0.127, K -0.484, N 0.016, L -0.149, T -0.236, R -0.123, I -0.217, E -0.073, V -0.197, Y -0.151
Y11: A -0.267
T9: K -0.473, R -0.068, I -0.203, P -0.768, Y -0.013, L -0.184, F -0.216, G -0.273, W -0.136, H -0.021, C -0.035, E -0.376, N -0.051, M 0.034, S 0.028, D -0.131, Q -0.056
H4: E -0.628, N -0.708, K -0.243, L -1.07, M -0.335, S -0.92, Q -0.804, A -0.878, W -1.04, Y -0.716, D -0.595, V -0.947, G -0.847, P -0.915
F6: Y -0.093, R -0.574, V -0.06, H -0.319, C -0.132, K -0.647, A -0.267, T -0.436, D -0.788, M -0.01, Q -0.309, E -0.551, G -0.627, S -0.252, W -0.667, I -0.269, L -0.138, P -0.477, N -0.29
N5: L -0.026, H 0.001, R -0.169, S -0.066, I -0.039, D -0.104, Q -0.051, E -0.098, W -0.14, Y -0.459, C -0.23, V -0.218, P -0.403, T -0.026, G -0.075, K -0.157, M -0.018, A -0.141, F -0.226
P3: H 0.17, Q 0.14, K -0.171, G 0.116, R -0.015, F 0.483, S 0.099, M 0.131, N 0.227, L 0.007, I 0.209, Y 0.394, E 0.357, C 0.291, A -0.047, V 0.064, D 0.677, T 0.06
G1: W -0.46, M 0.477, S 0.218, E 0.003, D 0.188, V -0.007, L -0.027, R -0.187

Variants of: B2
Test: as above
Settings: Homo sapiens

Abundance fitness of substitutions, site by site:
M28: P -1.06
K56: D 0.085
T4: L -0.165
V43: R -0.974
